Results reported in article PMC12313940, “Insights into a water-mediated catalytic triad architecture in CE20 carbohydrate esterases” (Nature Communications, 2025).

What was measured:
Fl8CE20_II [1] = biological target: T1, Fl8CE20_II (Salinimicrobium marinum, UniProt A0A918SDW1, K371M); assay: p-nitrophenol release, absorbance […] nm, Michaelis-Menten fit; assay type: biochemical; details: 50 mM Tris-HCl pH 8.0, 100 mM NaCl, 5% DMSO, room temperature
T1 construct: gene GCM10007103_17970; pET28a(+), N-terminal 6xHis tag, expressed in E. coli BL21(DE3), SGNH hydrolase with inserted ancillary domain

Fl8CE20_II [2] = biological target: T2, Fl8CE20_II (Salinimicrobium marinum, UniProt A0A918SDW1, Y335N); assay: as above; assay type: biochemical; details: 50 mM Tris-HCl pH 8.0, 100 mM NaCl, 5% DMSO, room temperature
T2 construct: gene GCM10007103_17970; pET28a(+), N-terminal 6xHis tag, expressed in E. coli BL21(DE3), SGNH hydrolase with inserted ancillary domain

PpCE20_II = biological target: T3, PpCE20_II (Pedobacter psychrotolerans, UniProt A0A4R2HIK5); assay: p-nitrophenolate release, stopped with acetonitrile, […] nm; assay type: biochemical; details: preferred temperature and pH of the enzyme
T3 construct: gene EV200_102244; catalytic residues Ser114, Asp518, His520

purified protein = substrate: CC(=O)Oc1ccc([N+](=O)[O-])cc1; assay: purified protein; assay type: biochemical, Salinimicrobium marinum; details: 50 mM Tris-HCl pH 8.0, 100 mM NaCl, 5% DMSO, room temperature

T1 sequence (A0A918SDW1 entry or part of it K371M): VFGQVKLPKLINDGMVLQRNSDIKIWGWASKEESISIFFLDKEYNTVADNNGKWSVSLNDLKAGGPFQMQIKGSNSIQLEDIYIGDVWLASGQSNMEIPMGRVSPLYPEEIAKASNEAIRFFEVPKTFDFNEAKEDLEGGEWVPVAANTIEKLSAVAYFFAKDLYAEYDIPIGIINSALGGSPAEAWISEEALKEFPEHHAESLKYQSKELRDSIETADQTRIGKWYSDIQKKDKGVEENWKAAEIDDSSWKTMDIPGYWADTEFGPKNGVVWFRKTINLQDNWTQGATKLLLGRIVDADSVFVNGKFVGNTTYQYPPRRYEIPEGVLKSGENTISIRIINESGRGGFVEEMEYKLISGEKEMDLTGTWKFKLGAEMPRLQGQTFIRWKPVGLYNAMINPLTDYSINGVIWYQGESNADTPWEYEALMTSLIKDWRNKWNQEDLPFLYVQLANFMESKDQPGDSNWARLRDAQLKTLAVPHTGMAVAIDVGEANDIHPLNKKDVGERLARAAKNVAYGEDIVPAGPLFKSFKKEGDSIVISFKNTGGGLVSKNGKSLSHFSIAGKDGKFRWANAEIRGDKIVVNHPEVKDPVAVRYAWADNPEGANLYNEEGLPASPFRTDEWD
T2 sequence (A0A918SDW1 entry or part of it Y335N): as the sequence (A0A918SDW1 entry or part of it K371M) above, with Y316N, M352K counted along it
T3 sequence (A0A4R2HIK5 entry or part of it): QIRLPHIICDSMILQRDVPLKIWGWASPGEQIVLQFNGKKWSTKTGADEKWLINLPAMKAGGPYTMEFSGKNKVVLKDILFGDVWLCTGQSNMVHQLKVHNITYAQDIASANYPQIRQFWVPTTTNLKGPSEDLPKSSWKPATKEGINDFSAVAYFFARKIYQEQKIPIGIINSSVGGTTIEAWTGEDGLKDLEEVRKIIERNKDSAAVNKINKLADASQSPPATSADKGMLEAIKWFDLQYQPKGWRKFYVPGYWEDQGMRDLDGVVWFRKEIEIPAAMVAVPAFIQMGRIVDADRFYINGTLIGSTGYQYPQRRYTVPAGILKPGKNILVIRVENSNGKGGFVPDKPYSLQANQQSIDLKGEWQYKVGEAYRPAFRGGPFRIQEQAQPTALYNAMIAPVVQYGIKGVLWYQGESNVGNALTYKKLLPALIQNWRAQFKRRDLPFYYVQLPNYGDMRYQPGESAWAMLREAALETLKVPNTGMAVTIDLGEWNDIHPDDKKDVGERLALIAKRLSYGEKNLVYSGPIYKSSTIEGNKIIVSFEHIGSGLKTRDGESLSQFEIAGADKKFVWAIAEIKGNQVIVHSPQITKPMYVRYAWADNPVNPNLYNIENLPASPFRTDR

Row | Molecule | KM (Fl8CE20_II [1]) | KM (Fl8CE20_II [2]) | KM (PpCE20_II) | Km (purified protein) [µM] | kcat (purified protein) [s⁻¹]
1 | CC(=O)Oc1ccc([N+](=O)[O-])cc1 [pNP-acetate] | slight reduction of kcat while showing the same KM as the mutant D513N | mutation of Tyr334 to Asn in the ancillary domain resulted in a decrease in kcat | In terms of biochemical and kinetic behaviour, all enzymes showed similar properties | – | –
2 | Fl8CE20_II (Salinimicrobium marinum) (protein, pET28a(+), N-terminal 6xHis tag, expressed in E. coli BL21(DE3), SGNH hydrolase with inserted ancillary domain) VFGQVKLPKLINDGMVLQRNSDIKIWGWASKEESISIFFLDKEYNTVADNNGKWSVSLNDLKAGGPFQMQIKGSNSIQLEDIYIGDVWLASGQSNMEIPMGRVSPLYPEEIAKASNEAIRFFEVPKTFDFNEAKEDLEGGEWVPVAANTIEKLSAVAYFFAKDLYAEYDIPIGIINSALGGSPAEAWISEEALKEFPEHHAESLKYQSKELRDSIETADQTRIGKWYSDIQKKDKGVEENWKAAEIDDSSWKTMDIPGYWADTEFGPKNGVVWFRKTINLQDNWTQGATKLLLGRIVDADSVFVNGKFVGNTTYQYPPRRYEIPEGVLKSGENTISIRIINESGRGGFVEEKEYKLISGEKEMDLTGTWKFKLGAEMPRLQGQTFIRWKPVGLYNAMINPLTDYSINGVIWYQGESNADTPWEYEALMTSLIKDWRNKWNQEDLPFLYVQLANFMESKDQPGDSNWARLRDAQLKTLAVPHTGMAVAIDVGEANDIHPLNKKDVGERLARAAKNVAYGEDIVPAGPLFKSFKKEGDSIVISFKNTGGGLVSKNGKSLSHFSIAGKDGKFRWANAEIRGDKIVVNHPEVKDPVAVRYAWADNPEGANLYNEEGLPASPFRTDEWD | – | – | – | 620 | 9.70
3 | Fl8CE20_II (Salinimicrobium marinum; S435A) (protein, pET28a(+), N-terminal 6xHis tag, expressed in E. coli BL21(DE3), SGNH hydrolase with inserted ancillary domain) VFGQVKLPKLINDGMVLQRNSDIKIWGWASKEESISIFFLDKEYNTVADNNGKWSVSLNDLKAGGPFQMQIKGSNSIQLEDIYIGDVWLASGQSNMEIPMGRVSPLYPEEIAKASNEAIRFFEVPKTFDFNEAKEDLEGGEWVPVAANTIEKLSAVAYFFAKDLYAEYDIPIGIINSALGGSPAEAWISEEALKEFPEHHAESLKYQSKELRDSIETADQTRIGKWYSDIQKKDKGVEENWKAAEIDDSSWKTMDIPGYWADTEFGPKNGVVWFRKTINLQDNWTQGATKLLLGRIVDADSVFVNGKFVGNTTYQYPPRRYEIPEGVLKSGENTISIRIINESGRGGFVEEKEYKLISGEKEMDLTGTWKFKLGAEMPRLQGQTFIRWKPVGLYNAMINPLTDYSINGVIWYQGEANADTPWEYEALMTSLIKDWRNKWNQEDLPFLYVQLANFMESKDQPGDSNWARLRDAQLKTLAVPHTGMAVAIDVGEANDIHPLNKKDVGERLARAAKNVAYGEDIVPAGPLFKSFKKEGDSIVISFKNTGGGLVSKNGKSLSHFSIAGKDGKFRWANAEIRGDKIVVNHPEVKDPVAVRYAWADNPEGANLYNEEGLPASPFRTDEWD | – | – | – | 210 | 4.48
4 | Fl8CE20_II (Salinimicrobium marinum; R314Q) (protein, pET28a(+), N-terminal 6xHis tag, expressed in E. coli BL21(DE3), SGNH hydrolase with inserted ancillary domain) VFGQVKLPKLINDGMVLQRNSDIKIWGWASKEESISIFFLDKEYNTVADNNGKWSVSLNDLKAGGPFQMQIKGSNSIQLEDIYIGDVWLASGQSNMEIPMGRVSPLYPEEIAKASNEAIRFFEVPKTFDFNEAKEDLEGGEWVPVAANTIEKLSAVAYFFAKDLYAEYDIPIGIINSALGGSPAEAWISEEALKEFPEHHAESLKYQSKELRDSIETADQTRIGKWYSDIQKKDKGVEENWKAAEIDDSSWKTMDIPGYWADTEFGPKNGVVWFRKTINLQDNWTQGATKLLLGQIVDADSVFVNGKFVGNTTYQYPPRRYEIPEGVLKSGENTISIRIINESGRGGFVEEKEYKLISGEKEMDLTGTWKFKLGAEMPRLQGQTFIRWKPVGLYNAMINPLTDYSINGVIWYQGESNADTPWEYEALMTSLIKDWRNKWNQEDLPFLYVQLANFMESKDQPGDSNWARLRDAQLKTLAVPHTGMAVAIDVGEANDIHPLNKKDVGERLARAAKNVAYGEDIVPAGPLFKSFKKEGDSIVISFKNTGGGLVSKNGKSLSHFSIAGKDGKFRWANAEIRGDKIVVNHPEVKDPVAVRYAWADNPEGANLYNEEGLPASPFRTDEWD | – | – | – | 40 | 1.3
5 | Fl8CE20_II (Salinimicrobium marinum; D514Q) (protein, pET28a(+), N-terminal 6xHis tag, expressed in E. coli BL21(DE3), SGNH hydrolase with inserted ancillary domain) VFGQVKLPKLINDGMVLQRNSDIKIWGWASKEESISIFFLDKEYNTVADNNGKWSVSLNDLKAGGPFQMQIKGSNSIQLEDIYIGDVWLASGQSNMEIPMGRVSPLYPEEIAKASNEAIRFFEVPKTFDFNEAKEDLEGGEWVPVAANTIEKLSAVAYFFAKDLYAEYDIPIGIINSALGGSPAEAWISEEALKEFPEHHAESLKYQSKELRDSIETADQTRIGKWYSDIQKKDKGVEENWKAAEIDDSSWKTMDIPGYWADTEFGPKNGVVWFRKTINLQDNWTQGATKLLLGRIVDADSVFVNGKFVGNTTYQYPPRRYEIPEGVLKSGENTISIRIINESGRGGFVEEKEYKLISGEKEMDLTGTWKFKLGAEMPRLQGQTFIRWKPVGLYNAMINPLTDYSINGVIWYQGESNADTPWEYEALMTSLIKDWRNKWNQEDLPFLYVQLANFMESKDQPGDSNWARLRDAQLKTLAVPHTGMAVAIDVGEANQIHPLNKKDVGERLARAAKNVAYGEDIVPAGPLFKSFKKEGDSIVISFKNTGGGLVSKNGKSLSHFSIAGKDGKFRWANAEIRGDKIVVNHPEVKDPVAVRYAWADNPEGANLYNEEGLPASPFRTDEWD | – | – | – | 9890 | 0.18
6 | Fl8CE20_II (Salinimicrobium marinum; R314E) (protein, pET28a(+), N-terminal 6xHis tag, expressed in E. coli BL21(DE3), SGNH hydrolase with inserted ancillary domain) VFGQVKLPKLINDGMVLQRNSDIKIWGWASKEESISIFFLDKEYNTVADNNGKWSVSLNDLKAGGPFQMQIKGSNSIQLEDIYIGDVWLASGQSNMEIPMGRVSPLYPEEIAKASNEAIRFFEVPKTFDFNEAKEDLEGGEWVPVAANTIEKLSAVAYFFAKDLYAEYDIPIGIINSALGGSPAEAWISEEALKEFPEHHAESLKYQSKELRDSIETADQTRIGKWYSDIQKKDKGVEENWKAAEIDDSSWKTMDIPGYWADTEFGPKNGVVWFRKTINLQDNWTQGATKLLLGEIVDADSVFVNGKFVGNTTYQYPPRRYEIPEGVLKSGENTISIRIINESGRGGFVEEKEYKLISGEKEMDLTGTWKFKLGAEMPRLQGQTFIRWKPVGLYNAMINPLTDYSINGVIWYQGESNADTPWEYEALMTSLIKDWRNKWNQEDLPFLYVQLANFMESKDQPGDSNWARLRDAQLKTLAVPHTGMAVAIDVGEANDIHPLNKKDVGERLARAAKNVAYGEDIVPAGPLFKSFKKEGDSIVISFKNTGGGLVSKNGKSLSHFSIAGKDGKFRWANAEIRGDKIVVNHPEVKDPVAVRYAWADNPEGANLYNEEGLPASPFRTDEWD | – | – | – | 300 | 4.67
7 | Fl8CE20_II (Salinimicrobium marinum; D514E) (protein, pET28a(+), N-terminal 6xHis tag, expressed in E. coli BL21(DE3), SGNH hydrolase with inserted ancillary domain) VFGQVKLPKLINDGMVLQRNSDIKIWGWASKEESISIFFLDKEYNTVADNNGKWSVSLNDLKAGGPFQMQIKGSNSIQLEDIYIGDVWLASGQSNMEIPMGRVSPLYPEEIAKASNEAIRFFEVPKTFDFNEAKEDLEGGEWVPVAANTIEKLSAVAYFFAKDLYAEYDIPIGIINSALGGSPAEAWISEEALKEFPEHHAESLKYQSKELRDSIETADQTRIGKWYSDIQKKDKGVEENWKAAEIDDSSWKTMDIPGYWADTEFGPKNGVVWFRKTINLQDNWTQGATKLLLGRIVDADSVFVNGKFVGNTTYQYPPRRYEIPEGVLKSGENTISIRIINESGRGGFVEEKEYKLISGEKEMDLTGTWKFKLGAEMPRLQGQTFIRWKPVGLYNAMINPLTDYSINGVIWYQGESNADTPWEYEALMTSLIKDWRNKWNQEDLPFLYVQLANFMESKDQPGDSNWARLRDAQLKTLAVPHTGMAVAIDVGEANEIHPLNKKDVGERLARAAKNVAYGEDIVPAGPLFKSFKKEGDSIVISFKNTGGGLVSKNGKSLSHFSIAGKDGKFRWANAEIRGDKIVVNHPEVKDPVAVRYAWADNPEGANLYNEEGLPASPFRTDEWD | – | – | – | 2300 | 0.43
